B1: SSAP_79: SEQ ID NO: 248 (protein)
chain: EALLLRRWQMGNLTKTTGFALAPQNLEQAMQLATMICNSQLAPNNYKGKPEDTLVAMMMGHELGLNPLQSIQNIAVINGRPSIYGDALLALVQNSPAFGGIQESFDEDTMTATCTVWRKGGEKHTQHYSKDDADTAGLWGKQGPWKQHPKRMLAMRARGFAVRNQFADALAGLVTREEAEDMEKEINPTPAPQAQSKRIGQKQSRTQYSESDFNENFPKWKAAVESGKKTSEQIISMVSTKGDLTQGMIEAIESIEAGEPA
B2: SSAP_144: SEQ ID NO: 313; Romboutsia weinsteinii (protein, listed as Romboutsia weinsteinii)
chain: TNLKNTLKNKEAKGNNLAINPSYAMKQLMIKMKGEITSALPKELCSERFQRVALTAFNSNPKLQNCAPMTFIAAMMQSDQLGLEPNTPLGQAYLIPYKVKGIDKVQFQIGYKGLLELAHRSGRLKTLYAHEVRENDEFDIDYGLEQRLIHKPLLKGNRGEVIGYYAVYHLEHNGYSFVFMTYDEVLEHGKKYSKSFEGGIWEKEFDSMAKKTVIKKLLKYAPLSIEIQKAINFDESVKGSIDSDMLLVDKADESIDVEGNVLNQRGIKYGCI
B3: SSAP_94: SEQ ID NO: 263; Providencia alcalifaciens (protein, listed as Providencia alcalifaciens)
chain: STPPLAKSDLQKTQGTEVKIKTNEQKLVEFINQPGMKAQLAAALPKHITSDRMIRIVSTEIRKTPSLANCDIQSFIGAVVQCSQLGLEPGNALGHAYLLPFGNGKSDNGQQNVQLIIGYRGMIDLARRSGQIISISARTVRQGDNFHFEYGLNENLTHIPEGNEDSPITHVYAVARLKDGGVQFEVMTYNQIEKVRNLSKAGKNGPWVTHWEEMAKKTVIRRLFKYLPVSIEMQKAVILDEKAEANIEQEHSAIFEAEFEEVDSNGN
B4: SSAP_149: SEQ ID NO: 318; unclassified Oscillibacter (protein, listed as Oscillibacter sp.)
chain: KEGLIQGTQSAQAAKKGPATMQDYIKKMQGEIAKALPSVLTPERFTRITLSALSTNPKLAQTTPKSFLGAMMTAAQLGMEPNTPLGQAYLIPFKNHGVLECQFQLGYKGLIDLAYRSGEVSTIQAQTVYENDEFEYELGLEPKLHHVPAKGERGEPVYFYAVFRTKDGGYGFEVMSVDDVRTHAKKYSKAYSNGPWQTNFEEMAKKTVLKKALKYAPLKTEFMRGLTSDETIKTEISEDMYSVPDETVIEAEGYEVDGDTGEVIERPADGQ
B5: SSAP_322: SEQ ID NO: 491; Candidatus Dependentiae bacterium (protein)
chain: CHVLNFQTDYKGEIKLAHKYSVRKIIDIYAKVVRDGDVLEIRVENGSQIVNFNPKVFNDGKIIGAFAVVKFVDGSLLYETMSKSEIDHTRVTFSKMPNGMAWKDSEGEMCRKTVLRRICKLIDLHFDSVEQEQAWNDGSDADLTKNEPVKPEIQNPFPTKAVEAVIVTEEEKLRKQLKDKDPTLQDWQIDALVREHKEANQ
modifications: Candidatus Dependentiae bacterium
B6: SSAP_161: SEQ ID NO: 330; Solobacterium moorei (protein, listed as Solobacterium moorei)
chain: TEIKAAKAPATVAKAGVSTQNKTIKDYITIMKPEIEKALPSTITPERFTRITLSAVSNNPKLQACSPSTFLSAMMQSAQLGLEPNTPLGQAYLIPYGNSCQFQLGYKGLLQLAYNSGQIKTIRTETVYENDEFKYELGLHSDLVHVPAMSNRGNPTAYYAVIEYTNGGYGFEVMSHDDVLEHAKKFSKTFNNGPWQSDFESMAKKTVLKQALKYAPLSTELVSKINTDETVKSSISDHMEEVKNDIDLSQIIDAETGEIHE
B7: SSAP_80: SEQ ID NO: 249 (protein)
chain: GHLVSKTEQDYIKQHYAKGATDQEFEHFIGVCRARGLNPAANQIYFVKYRSKDGPAKPAFILSIDSLRLIAHRTGDYAGCSEPIFTDGGKACTVTVRRNLKSGETGNFSGMAFYDEQVQQKNGRPTSFWQSKPRTMLEKCAEAKALRKAFPQDLGQFYIREEMPPQYDEPIQVHKPKALEEPRFSKSDLSRRKGLNRKLSALGVDPSRFDEVATFLDGTPDRELGQKLKLWLKEAGYGVNQ
B8: SSAP_297: SEQ ID NO: 466; Dysgonomonas capnocytophagoides (protein)
chain: STQQVQQQTKPLSLANFLNAPSTANFLKETLAEKKSEFVSNLIALCDADPKLAQCDPAQLMKCAMNATSLNLPLNKNLGYAYVIAYKGVPSFQIGYKGLIQLAIRTGQYKFINATEIREGEIRHNKITGEVIFNGEKPDAPIVGYMSYLELVNGFTASLYMTEEQIEQHALRFSQTYKNDKQYRSSTSKWSDPLARPTMCKKTVLKLLLGTYGLMTTEFAKALDSDSDDEVSTSGHRFEEAEIVQQGEPNEEQSDEPKRMEI
modifications: Dysgonomonas capnocytophagoides
B9: SSAP_88: SEQ ID NO: 257; Raoultella planticola (protein, listed as Raoultella planticola)
chain: TKQPPIAKADLQKTQGTRVSSPKGNNDVISFINQPSMKEQLAAALPRHMTAERMIRIATTEIRKVPALASCDTMSFVSAIVQCSQLGLEPGGALGHAYLLPFGNKNEKSGKKNVQLIIGYRGMIDLARRSGQIASLSARVVREGDEFSYEFGLEEKLTHRPGENEDAPVTHVYAVARLKDGGTQFEVLTSKQIELVRSQSKAANSGPWVTHWEEMAKKTAIRRLFKYLPVSIEIQRAVSIDEKEALTIDPADTSVLTGEYSVINSESEE
B10: SSAP_179: SEQ ID NO: 348; Acetoanaerobium noterae (protein, listed as Acetoanaerobium noterae)
chain: SNLKNELAKKANNSVTDGNKEPQTIKDWIKVMEPAIKKALPSVITPERFTRMALTAISVNPKLAECTPKSFMGSLMNAAQLGLEPNTPLGQAYLIPYKNKGNMEVQFQIGYKGLIELAYRSGEFANIYAKEVFENDEFEYEFGLEPVLKHKPASGNRGEVIAYYAVFKLTNGGFGFEVMSKEDITNHAKTYSQAYSSSYSPWSKNFDEMAKKTVLKKVLKYAPIKVEFVKQIVQDSTIKTEINSDMTEVESQNVFEAEETDYEVIDQEETK
B11: SSAP_131: SEQ ID NO: 300; Thermoclostridium stercorarium (protein, listed as Thermoclostridium stercorarium)
chain: TTVNQTELKNKLAEKAKTPAKTGNTVFDLIRKMEPEIKRALPKQISPERFARIAMTAVRNTPKLQACEPISFIAALMQSAQLGLEPNTPLGQAYLIPYGKEVQFQLGYQGMLTLAYRTGEYQSIYAMPVYANDEFEYEYGLNEKLVHKPAPDPEGEPIYYYAVYKLKNGGHGFVVMSRQQIERHRDKYSPSAKQGKFSPWNTDFDSMAKKTVLKQLLKYAPKSVEFATQIAQDETIKTEIAEDMTEVQGIEVEYEATDDQENQENQEQED
B12: SSAP_148: SEQ ID NO: 317; Corynebacterium liangguodongii (protein, listed as Corynebacterium liangguodongii)
chain: KDLETRMAANQQPAQQRPTTLADQIRGMEQQFALAMPKGAEASQLVRDALTALRQAPKLAQCTPQSVLGSLMTCAQLGLRPGVLGHAYLIPFYDRRAGGLVAQLVIGYQGLVELAHRSGQIKSLIARTVYENDVFDVDYGLEDKLVHKPYMGGDKGQPIAYYAVAKFTTGGHAFYVMSHPEMLDYRARFAKSAERGPWVDNFEAMALKTCVRQLSKWMPKSTELATAIAADESVRVDLTPDAINYPEHVDGEVVDAQGTTEDTAGEGEQSA
B13: SSAP_311: SEQ ID NO: 480; Paenibacillus graminis (protein, listed as Paenibacillus graminis)
chain: TVAIETQVQETLDRILDSKHDALPSDFKKKRFSENCKVYVAEEKDLHKYTIDDIVANLFKGAVLGLDFLAKECHLITGGVDLKFQTDYKGEMKLTKKYSVRPMLDVYAKNVREGDIFREQIIEGRPAIHFDPLPFNASKIIGSFAIALFQDGGMVYESIPAGEIEEIRKNYGKSLGDAWEKSQGEMYKRTVLRRLCKTIETDFDAEQRLIYEMGGAFEFTKQPTRSRQQSPFNPPEESEVIQNDRAAETDQG

Experiments:
Type in all cases: cell-based
gene editing with Cas9 = experiment: Screen of 322 new SSAP proteins, gene editing activity with Cas9 (Table 5); design: Cas9 with SSAP activity: scale not given here
Outline: (§1)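 Editing screen of 322 newly identified, synthesized SSAPs, each co-used with Cas9 and with dCas9.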

gene editing with dCas9 = experiment: Screen of 322 new SSAP proteins, gene editing activity with dCas9 (Table 5); design: dCas9 with SSAP activity: scale not given here
Outline: as §1

[1] = test system: gene editing with Cas9 and dCas9; experiment: Screen of 322 new SSAP proteins, activity across all experiments (Cas9 and dCas9, Table 5); design: scale not given here
Outline: as §1

Row | Molecule | Cas9 with SSAP activity (gene editing with Cas9) | Cas9 with SSAP activity (normalized) (gene editing with Cas9) | dCas9 with SSAP activity (gene editing with dCas9) | dCas9 with SSAP activity (normalized) (gene editing with dCas9) | Activity across all experiments [1]
1 | B1 | −1.629 | −2.086 | −7.349 | −2.203 | −4.489
2 | B2 | −2.249 | −0.663 | −7.293 | −1.765 | −4.771
3 | B3 | −0.340 | −0.087 | −7.000 | −1.112 | −3.670
4 | B4 | −1.833 | −2.092 | −6.999 | −1.192 | −4.416
5 | B5 | 0.287 | 0.247 | 0.082 | 0.048 | 0.184
6 | B6 | −1.623 | −0.850 | −0.092 | −0.051 | −0.857
7 | B7 | −3.757 | −0.629 | −7.200 | −1.353 | −5.479
8 | B8 | −5.364 | −1.014 | −7.184 | −1.057 | −6.274
9 | B9 | −2.144 | −1.524 | −6.933 | −1.193 | −4.539
10 | B10 | −4.285 | −0.748 | −6.840 | −1.230 | −5.563
11 | B11 | −1.273 | −0.894 | −7.001 | −0.946 | −4.137
12 | B12 | −3.731 | −0.574 | −6.656 | −1.610 | −5.193
13 | B13 | −6.123 | −0.874 | −7.375 | −1.526 | −6.749

Reference: patent publication US20250034594A1, “RNA-GUIDED GENOME RECOMBINEERING AT KILOBASE SCALE” (THE BOARD OF TRUSTEES OF THE LELAND STANFORD JUNIOR …, priority 2021, published 2025)
